# In publication doi:10.1101/2021.09.27.461913v1:
# Test system: O=c1[nH]c(=O)c2[nH]cnc2[nH]1
# Test: cells, lysate or membranes
# Conditions: labelled compound
substance,measurement,value
UapA (Aspergillus nidulans FGSC A4),Km,6 ± 2 µM
